Test: soluble on expression in E. coli; label from the status in PepcDB or PDB records

Sequence	soluble on expression in E. coli
MGSDKIHHHHHHMEQNRFKKETKTCSASWPRAPQSTLCATDRLELTYDVYTSAERQRRSRTATRLNLVFLHGSGMSKVVWEYYLPRLVAADAEGNYAIDKVLLIDQVNHGDSAVRNRGRLGTNFNWIDGARDVLKIATCELGSIDSHPALNVVIGHSMGGFQALACDVLQPNLFHLLILIEPVVITRKAIGAGRPGLPPDSPQIPENLYNSLRLKTCDHFANESEYVKYMRNGSFFTNAHSQILQNIIDFERTKASGDDEDGGPVRTKMEQAQNLLCYMNMQTFAPFLISNVKFVRKRTIHIVGARSNWCPPQNQLFLQKTLQNYHLDVIPGGSHLVNVEAPDLVIERINHHIHEFVLTSPLQSSHIPQLTLEERAVMFDRAFDSFKNEALVKTTKQKL	not soluble
GDFSWNSSLTYTMNRNKVKRLASGATNPITGEIIDMPELRMAVLGADGYGPRVILREGGTMGDLYVDKGLRTDGNGNIWVDSQTGKVGVQDYAEPKKIGTMNPDFNMGFSNTFSYKGINLGVVLTARVGGLCVSNTQGILDYYGVSKATADARDAGGVWINNGFVDAKSYYQTIGGSTGGLGQYYTYSATNIRLSELNLSYTLPRKWFNNKVGITAGIVGKNLWMIYCKAPFDPEMTPSTTSNFYQGVDYFMQPSTRNIGFNVKFQF	not soluble
MPYLLEMKNITKTFGSVKAIDNVCLRLNAGEIVSLCGENGSGKSTLMKVLCGIYPHGSYEGEIIFAGEEIQASHIRDTERKGIAIIHQELALVKELTVLENIFLGNEITHNGIMDYDLMTLRCQKLLAQVSLSISPDTRVGDLGLGQQQLVEIAKALNKQVRLLILDEPTASLTEQETSILLDIIRDLQQHGIACIYISHKLNEVKAISDTICVIRDGQHIGTRDAAGMSEDDIITMMVGRELTALYPNEPHTTGDEILRIEHLTAWHPVNRHIKRVNDVSFSLKRGEILGIAGLVGAGRTETIQCLFGVWPGQWEGKIYIDGKQVDIRNCQQAIAQGIAMVPEDRKRDGIVPVMAVGKNITLAALNKFTGGISQLDDAAEQKCILESIQQLKVKTSSPDLAIGRLSGGNQQKAILARCLLLNPRILILDEPTRGIDIGAKYEIYKLINQLVQQGIAVIVISSELPEVLGLSDRVLVMHEGKLKANLINHNLTQEQVMEAALRSEHHVEKQSV	not soluble
MEAVDLAFANYAERFARSCKGDGWRRLVERAIRLYLTPVLGKKALPAINRTDVVSVFDNMPADQVANRRNVFAVLRRLFRWAVSRGDLDRSPMEGMLEHHHHHH	not soluble
MNFIVIGAGNIGSGIAQNLLEDGHEVEIADKSRESLNRIRGRNPKIRTREFDVMDRSAYRMLNDYDASVSALPGSIGMQFLKNVAKMGKIVVDVSYMEEDPYDLNGIAQSAGTIIVPDMGFAPGLTNAIVGYFSADLDQIRNVKIYVGGIPEKPVPPLDYTITWSVEGLIDEYTRPVRIVRNGTEDHVPALSGIERIGVGNYADMEAFYTDGLRSLIRNIKCTGEMFEKTIRYPGHAEKMAAIRDLGYFDRIKVDGCNLTMFEISEQIFMEKLFRPDIQDVVLMKVEVSGTKLGREVTRTAEMQTGYDSSRKRTAMDMATSLPASITAEFLSSNGKITSGIVFPEILGKTQNYFEYLVNNMKKKGINVNISVK	not soluble
MKTIGLIGGMSWESTTSYYQLINETIKKELGGLHSAKILLYSVDFAEIEHYQASDDWAKSAEVLSQIAQKLEQAGADFIVICTNTMHKVAPQIQKQIAIPILHIAQATAEAILENGIQKV	not soluble
MSLQFYSVQTNTLKLATTTFNAEGSMLLSTHWTLNLGFSYNPWNFSDTRKIKHFLIEPGARYWFWQTYAGSFISMYAMGARYNVAWDGLLGGDYRYQGWGYGAGMTYGRSWLLSKRWNMEVEAGLGLLVAPYTKYRCEHCGDKVKSGTYFLPTPKLAFNLVYLFEGHHHHHH	not soluble
MSLSDWIDASFTTKQTDAAKSSSQTKPKSVNQVKLDVPLVNQMTTPRLYNGCEVTSLTMLMNYAHINVTKNELAAKITSVPLTYSDGEHGNPEYGFVGDITGNDPGLGVYHKPIYKLAKTETSQVKDLTGANFDTVIEQLEQGRPVWTITTASFAPVSTMQTWQTPQGSVKVTYDMHSVVIVGFNRTKKLIYINNPYGEKQQAVSWKNFEAAYNQMGKQAIVLTLPHEGHHHHHH	soluble
MAHLLQLHHVSKSYREKKAIDDLTITIPNGKIIGLLGPNGSGKTTLIKLINGLLQPNKGEIVIDGYRPCVETKKIISYLPDTTYLNENMRIKDMLEFFSDFYSDFDKSKATSLLRDLELDPEDRFKTLSKGNKEKVQLILVMSRKARLYVLDEPIGGVDPAARDYILKTIINSYCENASVIISTHLISDIEPILDEVIFLKQGRLFLSGNADDLRQEYQQSIDSLFRETYKV	not soluble
MGSDKIHHHHHHLYNQPEVALEKYELTVSRIIKGRGAYICDTGIGQKLLVPYRGHEQRACTLRDTLAFIQRNGMDVEQISQTKEQCIISRDNCEDAYILKDYRAGRECSTDSIDDMRGGSRALAQLHNILEKYPLPSDIEVESLYEKAQRKCAQIVKLKNYILRRSKTNAFEHLFYECYERFLEQGQKSAEILCELENSKTSVPIYCHGAFNQHNVVYTQSGRWLPVNFETMHPGYPETDLAEYMRKMLEKNHWDTAVADAILDSYCSVRSLDDTSMRLLQALLLFPEKFCKLCNHYSNSRKSWVCDRDVDKLAQLIQLSGEREEYLHALQAIV	not soluble
MQDDKKVAFPGDMIATTEEYLPGKNTEEKNGEIIAVKFGQIIRDDINLLISVDTQKKEFTLKKGDIVYGQVVKGEQHRYIVRIVGAFQKGLGLREIDEEMQLSLGIARRPQSDFIAIGDLIRGYVIRTGDFPEISINGNHYGVISAVCLRCRQPLVKRGITLYCENCQRTEIRKMADDYGNVDIFNYENRIQNQVKANGKRRLEHHHHHH	soluble
MSDVDVFVIDDDFDPLADLSLDDGERDDAEADYLPPIPDADKSVVPPVVPLSATERIEKLLAGIPGQQFRLLHAVEFCTEPKTMDEAVADLDAAYPNTTSVYGSAQVVQLLERDGALERIVDEDAAHAAAGDAADTPAEDEGFISVTPAPPCRYRATQAGLDAVAAHVNEGLVAERISEDERYLPIFQRVLEMCAREGGCPTKELDQAVDGDPLCQEPRRFCGFFRGKLEETGAIEWRDAWTITDLGRSVLASGLFAAASPSER	not soluble
MIVRFAGRRGVVSTCNLNGGYREDLRYAFNNSCGRDPDVIAKRSVGMRGKTMIEHYAALAEELGLPLDKTTGMGTAALIENTATSSRQYHGVTVMAVATAGIDVNGGRAGEPAAYNEFTQTDLIKPGTINVFLFIDASLDAGTLTRALVTATEAKSAALQELMANSMYSEDLATGSGTDSLIAICNKESEIVLQNSGKHVLLGEMIGQSVKEAITEALSRQTKMTPTRQASIEWQTKRYGITREAIVSECLRLYPHLKKEVVEAGIGGIDRDNRLVAAVAAIAHLCDQNRWQIISDKSMTCTAENILHTILSERGISEEANRKDIVCGQDAPAYRQVLSLCLHTLARILHNRIIHSSL	not soluble
VRPAIKVGLSTASVYPLRAEAAFEYADRLGYDGVELMVWGESVSQDIDAVRKLSRRYRVPVLSVHAPCLLISQRVWGANPILKLDRSVRAAEQLGAQTVVVHPPFRWQRRYAEGFSDQVAALEAASTVMVAVENMFPFRADRFFGAGQSRERMRKRGGGPGPAISAFAPSYDPLDGNHAHYTLDLSHTATAGTDSLDMARRMGPGLVHLHLCDGSGLPADEHLVPGRGTQPTAEVCQMLAGSGFVGHVVLEVSTSSARSANERESMLAESLQFARTHLLR	not soluble
MPHIVKSTILDAPTDAAWSVLRDFNGHDRWHPAVATSMIERAQPSDKIGCVRRFKLKDGSELREQLLALSDLEQSFSYCLLDTPVPMFNYVAHVRLLPVTDGDRTFWHWESRFTTRPEDKDRITHMVAEDIYQAGFEAIRRHLKEAASSWPLEHHHHHH	soluble
MGTITGEFTEHSAEAIAAMLSYIVQTEYEKKQLAKDTLQKYEEVVFLSQFANAVATCTGLQELIEVIRAEIRQVISVDEIFLYLYDQSQDSLTPLLYKTEESLQNFKAIEKIVERVLKLNQVEVIDDIQNDQDYLNQPSKIRSLLCYSLTVQNSIIGVLGLAHYQVKHFDSSDLNLFSTLTGQVAAAIRTAQYYETIKNYSQTLEIRLEHHHHHH	not soluble
MSLNSNHKQPIFDNVLNRKFQVNEPNRAYVSDMTYIPTHEGWLYLTVVIDLFSRKVVGWNMSSRMKADTVCDALTMAIWQRKPKAGLIVHSDRGSQYASKQYRSLLNQHGLVGSMSKKGDCWDNSVAESFFSRLKDELVHWRNYQTRREAKQDILDYMTMFYNNQRLHSSLDYLSPNQFENRYWGLMKKVAEGHHHHHH	soluble

Source: the DeepSol protein solubility set
